From the DeepSol protein solubility set

Test: soluble on expression in E. coli; label from the status in PepcDB or PDB records

Sequence | soluble on expression in E. coli
MVISMSDLTFEDVKKEISALDKLSDLEAKKYADTGGYADVIARANNLKTTQLRKFFSAIRSMEKKADSWKSIEADFYLLKPQLANARGRDLIPEGFYEVMKKMMDKVDRGDDDEKIENFRVFVRFLESIVAYHKFYNPRS | not soluble
MRMPASMEPDWKALLRVLRAHSATFYLGSLLFPKEARKGAWAVYAACRLGDEAVDGEGGGPEALEAWCSGVERAYRGRPLAEWEKGLAWALERWDIPFEAFLHMREGFQTDLGPVRLGTEAELLRYCYQVAGTVGRMMAPIAGGGKEAEARAVKLGQAMQLTNILRDVGEDLGRDRVYLPSELLKAYGVRLSDLEAGRITPEYRALMAHLEGKARALYREGLAGLGHLKVGRAAIALAALQYRGILDKLRLSGYDNLGRRAHLKAWERALLLPKAFLAARFPPRPEGSP | soluble
MVPPITSDEFCETSGCFGDSANLHTTLERLKININSDAKKLVDTNGDLKKHQRFLRIAKVTSLRSKDPNTQVGCVIVDKDNCIVSVGYNGFPIGVDDDVFRWDKEDPEDNKHLYVVHAEMNAIINKRCTTLHDCTVYVTLFPCNKCAQMLIQSRVKKVYFLENRDELAFRASKKMLDHARLPYEQIVMPQEAYVIEL | not soluble
MSKHRIALAGNPNTGKSTLFNTLTGLKQHTGNWTGKTVLKAEGEYEHNGSNYTLIDLPGTYSLYSNSADEEVARDYIIFEKPEVTVVVIDATAMERNLNLALQVMEMTNNVVICINLIDEAEKKGIVIDEKKLAKSLGVPVVKISARNRVGIGHLLNVIAKVANKKLIPTPIKITYSEKIENMIQELEPQIYKVFGDTYPARWIALRILDGDKNFLTTLQKHHNEPLVREVVINGISLSQ | not soluble
MLTQEHINIIKSTIPLLESAGPALTQHFYQRMFSHNPELKHIFNMTHQKTGRQSVALFEAIAAYAKHIDNLAALTSAVERIAHKHTSFNIQPEHYQIVGHHLLETLRELAPDAFTQPVEEAWTAAYFFLAQVFIDREGALYLERKQALGGWRDGRTFVVREKQVESAYVTSFVLVPADGGAVLDYQPGQYIGIEVTPEGSDYREIRQYSLSHASNGREYRISVKREGVGSDNPGLVSHYLHNNVKVGDSVKLYAPAGDFFYVERERPVVLISAGVGATPMQAILHTLAKQNKSGVTYLYACNSAKEHTFAQETAQLIAQQGWMQQVWYRDESADDVLQGEMQLAELILPIEDGDFYLCGPIGFMQYVVKQLLALGVDKARIHYEVFGPHAQLAA | not soluble
MGSDKIHHHHHHMSLFDHKITELKQLIHKKEIKISDLVDESYKRIQAVDDKVQAFLALDEERARAYAKELDEAVDGRSEHGLLFGMPIGVKDNIVTKGLRTTCSSKILENFDPIYDATVVQRLQDAEAVTIGKLNMDEFAMGSSTENSAYKLTKNPWNLDTVPGGSSGGSAAAVAAGEVPFSLGSDTGGSIRQPASFCGVVGLKPTYGRVSRYGLVAFASSLDQIGPITRTVEDNAFLLQAISGVDKMDSTSANVDVPDFLSSLTGDIKGLKIAVPKEYLGEGVGKEARESVLAALKVLEGLGATWEEVSLPHSKYALATYYLLSSSEASANLARFDGIRYGYRTDNADNLIDLYKQTRAEGFGNEVKRRIMLGTFALSSGYYDAYYKKAQKVRTLIKKDFEDVFEKYDVIVGPTTPTPAFKIGENTKDPLTMYANDILTIPVNLAGVPGISVPCGLADGLPLGLQIIGKHFDESTVYRVAHAFEQATDHHKAKPEL | not soluble
MSYERRKTREVSVGTVKIGGENPISIQSMTNTDTRDADATIAQIKRLEEAGCDIVRVAVPDIKAAKNIAKIKSSVNIPIIADIHFDYKLALEAIKQGVDGIRINPGNIGSIERVKMVVEKCKERNLKIRIGVNGGSLEKELLKKYGSATAEALVESAMGHIKILEDLDFHNIVISLKSSDIYKTVDAYELISKKVDYPLHIGITESGSVHKGTIKSSIGVGALLLKGIGDTVRISLTGDPVEEVIVGKQILRSLGLLNDKIKVISCPTCGRCNIDLISVVNEVEEKIGSMEKNITVAIMGCAVNGPGEAREADIGIAGGKGEGLLFKKGEIVRMIDGNKLVDELLEEIEKL | not soluble
NISYFSIGSGTPIIFLHGLSLDKQSTCLFFEPLSNVGQYQRIYLDLPGMGNSDPISPSTSDNVLETLIEAIEEIIGARRFILYGHSYGGYLAQAIAFHLKDQTLGVFLTCPVITADHSKRLTGKHINILEEDINPVENKEYFADFLSMNVIINNQAWHDYQNLIIPGLQKEDKTFIDQLQNNYSFTFEEKLKNINYQFPFKIMVGRNDQVVGYQEQLKLINHNENGEIVLLNRTGHNLMIDQREAVGFHFDLFLDE | not soluble
